Experimental data as given in IntAct's records for PubMed 28062662.

B1: Glutaryl-CoA dehydrogenase, mitochondrial (Homo sapiens), Q92947 (parent)
chain: MALRGVSVRLLSRGPGLHVLRTWVSSAAQTEKGGRTQSQLAKSSRPEFDWQDPLVLEEQLTTDEILIRDTFRTYCQERLMPRILLANRNEVFHREIISEMGELGVLGPTIKGYGCAGVSSVAYGLLARELERVDSGYRSAMSVQSSLVMHPIYAYGSEEQRQKYLPQLAKGELLGCFGLTEPNSGSDPSSMETRAHYNSSNKSYTLNGTKTWITNSPMADLFVVWARCEDGCIRGFLLEKGMRGLSAPRIQGKFSLRASATGMIIMDGVEVPEENVLPGASSLGGPFGCLNNARYGIAWGVLGASEFCLHTARQYALDRMQFGVPLARNQLIQKKLADMLTEITLGLHACLQLGRLKDQDKAAPEMVSLLKRNNCGKALDIARQARDMLGGNGISDEYHVIRHAMNLEAVNTYEGTHDIHALILGRAITGIQAFTASK
partner: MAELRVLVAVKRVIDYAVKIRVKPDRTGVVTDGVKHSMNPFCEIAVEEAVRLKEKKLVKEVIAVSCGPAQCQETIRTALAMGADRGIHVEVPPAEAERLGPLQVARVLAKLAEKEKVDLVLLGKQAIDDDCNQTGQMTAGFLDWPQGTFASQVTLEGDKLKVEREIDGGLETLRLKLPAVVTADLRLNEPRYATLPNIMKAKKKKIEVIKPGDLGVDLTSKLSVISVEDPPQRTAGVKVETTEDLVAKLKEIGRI
B2: Glutaryl-CoA dehydrogenase, mitochondrial (Homo sapiens), Q92947 (parent)
chain: B1 chain
partner: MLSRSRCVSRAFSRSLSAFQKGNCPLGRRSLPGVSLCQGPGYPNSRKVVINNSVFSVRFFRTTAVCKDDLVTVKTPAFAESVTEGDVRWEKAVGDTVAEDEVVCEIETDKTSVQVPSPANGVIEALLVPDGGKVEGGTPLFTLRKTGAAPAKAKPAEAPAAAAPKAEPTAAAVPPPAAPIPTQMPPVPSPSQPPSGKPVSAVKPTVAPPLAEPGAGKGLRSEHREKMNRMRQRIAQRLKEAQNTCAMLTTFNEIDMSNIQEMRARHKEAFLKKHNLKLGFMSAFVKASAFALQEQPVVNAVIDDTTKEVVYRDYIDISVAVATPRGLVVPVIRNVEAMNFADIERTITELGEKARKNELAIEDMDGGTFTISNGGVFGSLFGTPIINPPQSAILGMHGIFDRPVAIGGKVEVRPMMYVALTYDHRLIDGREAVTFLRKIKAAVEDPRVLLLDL

Variants of: B1
Details: with etfb_human ETFB

Variant | effect of a mutation on the interaction
MALRGVSVRLLSRGPGLHVLRTWVSSAAQTEKGGRTQSQLAKSSRPEFDWQDPLVLEEQLTTDEILIRDTFRTYCQERLMPRILLANRNEVFHREIISEMGELGVLGPTIKGYGCARVSSVAYGLLARELERVDSGYRSAMSVQSSLVMHPIYAYGSEEQRQKYLPQLAKGELLGCFGLTEPNSGSDPSSMETRAHYNSSNKSYTLNGTKTWITNSPMADLFVVWARCEDGCIRGFLLEKGMRGLSAPRIQGKFSLRASATGMIIMDGVEVPEENVLPGASSLGGPFGCLNNARYGIAWGVLGASEFCLHTARQYALDRMQFGVPLARNQLIQKKLADMLTEITLGLHACLQLGRLKDQDKAAPEMVSLLKRNNCGKALDIARQARDMLGGNGISDEYHVIRHAMNLEAVNTYEGTHDIHALILGRAITGIQAFTASK [G117R] | decreasing interaction strength
MALRGVSVRLLSRGPGLHVLRTWVSSAAQTEKGGRTQSQLAKSSRPEFDWQDPLVLEEQLTTDEILIRDTFRTYCQERLMPRILLANRNEVFHREIISEMGELGVLGPTIKGYGCAGVSSVAYGLLARELERVDSGYRSAMSVQSSLVMHPIYAYGSEEQQQKYLPQLAKGELLGCFGLTEPNSGSDPSSMETRAHYNSSNKSYTLNGTKTWITNSPMADLFVVWARCEDGCIRGFLLEKGMRGLSAPRIQGKFSLRASATGMIIMDGVEVPEENVLPGASSLGGPFGCLNNARYGIAWGVLGASEFCLHTARQYALDRMQFGVPLARNQLIQKKLADMLTEITLGLHACLQLGRLKDQDKAAPEMVSLLKRNNCGKALDIARQARDMLGGNGISDEYHVIRHAMNLEAVNTYEGTHDIHALILGRAITGIQAFTASK [R161Q] | increasing interaction strength
MALRGVSVRLLSRGPGLHVLRTWVSSAAQTEKGGRTQSQLAKSSRPEFDWQDPLVLEEQLTTDEILIRDTFRTYCQERLMPRILLANRNEVFHREIISEMGELGVLGPTIKGYGCAGVLSVAYGLLARELERVDSGYRSAMSVQSSLVMHPIYAYGSEEQRQKYLPQLAKGELLGCFGLTEPNSGSDPSSMETRAHYNSSNKSYTLNGTKTWITNSPMADLFVVWARCEDGCIRGFLLEKGMRGLSAPRIQGKFSLRASATGMIIMDGVEVPEENVLPGASSLGGPFGCLNNARYGIAWGVLGASEFCLHTARQYALDRMQFGVPLARNQLIQKKLADMLTEITLGLHACLQLGRLKDQDKAAPEMVSLLKRNNCGKALDIARQARDMLGGNGISDEYHVIRHAMNLEAVNTYEGTHDIHALILGRAITGIQAFTASK [S119L] | decreasing interaction strength
MALRGVSVRLLSRGPGLHVLRTWVSSAAQTEKGGRTQSQLAKSSRPEFDWQDPLVLEEQLTTDEILIRDTFRTYCQERLMPRILLANRNEVFHREIISEMGELGVLGPTIKGYGCAGVSSVAYGLLARELERVDSGYRSAMSVQSSLVMHPIYAYGSEEQRQKYLPQLAKGELLGCFGLTEPNSGSDPSSMETRAHYNSSNKSYTLNGTKTWITNSLMADLFVVWARCEDGCIRGFLLEKGMRGLSAPRIQGKFSLRASATGMIIMDGVEVPEENVLPGASSLGGPFGCLNNARYGIAWGVLGASEFCLHTARQYALDRMQFGVPLARNQLIQKKLADMLTEITLGLHACLQLGRLKDQDKAAPEMVSLLKRNNCGKALDIARQARDMLGGNGISDEYHVIRHAMNLEAVNTYEGTHDIHALILGRAITGIQAFTASK [P217L] | decreasing interaction strength
MALRGVSVRLLSRGPGLHVLRTWVSSAAQTEKGGRTQSQLAKSSRPEFDWQDPLVLEEQLTTDEILIRDTFRTYCQERLMPRILLANRNEVFHREIISEMGELGVLGPTIKGYGCAGVSSVAYGLLARELERVDSGYRSAMSVQSSLVMHPIYAYGSEEQRQKYLPQLAKGELLGCFGLTEPNSGSDPSSMETRAHYNSSNKSYTLNGTKTWITNSPMADLFVVWARCEDGCIRGFLLEKGMRCLSAPRIQGKFSLRASATGMIIMDGVEVPEENVLPGASSLGGPFGCLNNARYGIAWGVLGASEFCLHTARQYALDRMQFGVPLARNQLIQKKLADMLTEITLGLHACLQLGRLKDQDKAAPEMVSLLKRNNCGKALDIARQARDMLGGNGISDEYHVIRHAMNLEAVNTYEGTHDIHALILGRAITGIQAFTASK [G244C] | increasing interaction strength
MALRGVSVRLLSRGPGLHVLRTWVSSAAQTEKGGRTQSQLAKSSRPEFDWQDPLVLEEQLTTDEILIRDTFRTYCQERLMPRILLANRNEVFHREIISEMGELGVLGPTIKGYGCAGVSSVAYGLLARELERVDSGYRSAMSVQSSLVMHPIYAHGSEEQRQKYLPQLAKGELLGCFGLTEPNSGSDPSSMETRAHYNSSNKSYTLNGTKTWITNSPMADLFVVWARCEDGCIRGFLLEKGMRGLSAPRIQGKFSLRASATGMIIMDGVEVPEENVLPGASSLGGPFGCLNNARYGIAWGVLGASEFCLHTARQYALDRMQFGVPLARNQLIQKKLADMLTEITLGLHACLQLGRLKDQDKAAPEMVSLLKRNNCGKALDIARQARDMLGGNGISDEYHVIRHAMNLEAVNTYEGTHDIHALILGRAITGIQAFTASK [Y155H] | increasing interaction strength
MALRGVSVRLLSRGPGLHVLRTWVSSAAQTEKGGRTQSQLAKSSRPEFDWQDPLVLEEQLTTDEILIRDTFRTYCQERLMPRILLANRNEVFHREIISEMGELGVLGPTIKGYGCAGVSSVAYGLLARELERVDSGYRSAMSVQSSLVMHPIYAYGSEEQRQKYLPQLAKGELLGCFGLTEPNSGSDPSSMETRAHYNSSNKSYTLNGTKTWITNSPMADLFVVWAPCEDGCIRGFLLEKGMRGLSAPRIQGKFSLRASATGMIIMDGVEVPEENVLPGASSLGGPFGCLNNARYGIAWGVLGASEFCLHTARQYALDRMQFGVPLARNQLIQKKLADMLTEITLGLHACLQLGRLKDQDKAAPEMVSLLKRNNCGKALDIARQARDMLGGNGISDEYHVIRHAMNLEAVNTYEGTHDIHALILGRAITGIQAFTASK [R227P] | increasing interaction strength

Now from value to variant:

effect of a mutation on the interaction | Variant
increasing interaction strength | MALRGVSVRLLSRGPGLHVLRTWVSSAAQTEKGGRTQSQLAKSSRPEFDWQDPLVLEEQLTTDEILIRDTFRTYCQERLMPRILLANRNEVFHREIISEMGELGVLGPTIKGYGCAGVSSVAYGLLARELERVDSGYRSAMSVQSSLVMHPIYAYGSEEQRQKYLPQLAKGELLGCFGLTEPNSGSDPSSMETRAHYNSSNKSYTLNGTKTWITNSPMADLFVVWARCEDGCIRGFLLEKGMRGLSAPRIQGKFSLRASATGVIIMDGVEVPEENVLPGASSLGGPFGCLNNARYGIAWGVLGASEFCLHTARQYALDRMQFGVPLARNQLIQKKLADMLTEITLGLHACLQLGRLKDQDKAAPEMVSLLKRNNCGKALDIARQARDMLGGNGISDEYHVIRHAMNLEAVNTYEGTHDIHALILGRAITGIQAFTASK [M263V]
increasing interaction strength | MALRGVSVRLLSRGPGLHVLRTWVSSAAQTEKGGRTQSQLAKSSRPEFDWQDPLVLEEQLTTDEILIRDTFRTYCQERLMPRILLANRNEVFHREIISEMGELGVLGPTIKGYGCAGVSSVAYGLLARELERVDSGYRSAMSVQSSLVMHPIYAYGSEEQRQKYLPQLAKGELLGCFGLTEPNSGSDPSSMETRAHYNSSNKSYTLNGTKTWITNSPMADLFVVWARCEDGCIRGFLLEKGMRGLSAPRIQGKFSLRASATGMIIMDGVEVPEENVLPGASSLGGPFGCLNNARYGIAWGVLGASEFCLHTARQYALDRMQFGVPLARNQLIQKKLADMLTEITLGLHACLQLGHLKDQDKAAPEMVSLLKRNNCGKALDIARQARDMLGGNGISDEYHVIRHAMNLEAVNTYEGTHDIHALILGRAITGIQAFTASK [R355H]
increasing interaction strength | MALRGVSVRLLSRGPGLHVLRTWVSSAAQTEKGGRTQSQLAKSSRPEFDWQDPLVLEEQLTTDEILIRDTFRTYCQERLMPRILLANRNEVFHREIISEMGELGVLGPTIKGYGCAGVSSVAYGLLARELERVDSGYRSAMSVQSSLVMHPIYAYGSEEQRQKYLPQLAKGELLGCFGLTEPNSGSDPSSMETRAHYNSSNKSYTLNGTKTWITNSPMADLFVVWARCEDGCIRGFLLEKGMRGLSALRIQGKFSLRASATGMIIMDGVEVPEENVLPGASSLGGPFGCLNNARYGIAWGVLGASEFCLHTARQYALDRMQFGVPLARNQLIQKKLADMLTEITLGLHACLQLGRLKDQDKAAPEMVSLLKRNNCGKALDIARQARDMLGGNGISDEYHVIRHAMNLEAVNTYEGTHDIHALILGRAITGIQAFTASK [P248L]
increasing interaction strength | MALRGVSVRLLSRGPGLHVLRTWVSSAAQTEKGGRTQSQLAKSSRPEFDWQDPLVLEEQLTTDEILIRDTFRTYCQERLMPRILLANRNEVFHREIISEMGELGVLGPTIKGYGCAGVSSVAYGLLARELERVDSGYRSAMSVQSSLVMHPIYAYGSEEQRQKYLPQLAKGELLGCFGLTEPNSGSDPSSMETRAHYNSSNKSYTLNGTKTWITNSPMADLFVVWARCEDGCIRGFLLEKGMRGLSAPRIQGKFSLRASATGMIIMDGVEVPEENVLSGASSLGGPFGCLNNARYGIAWGVLGASEFCLHTARQYALDRMQFGVPLARNQLIQKKLADMLTEITLGLHACLQLGRLKDQDKAAPEMVSLLKRNNCGKALDIARQARDMLGGNGISDEYHVIRHAMNLEAVNTYEGTHDIHALILGRAITGIQAFTASK [P278S]

Variants of: B2
Details: with odo2_human DLST

Variant | effect of a mutation on the interaction
MALRGVSVRLLSRGPGLHVLRTWVSSAAQTEKGGRTQSQLAKSSRPEFDCQDPLVLEEQLTTDEILIRDTFRTYCQERLMPRILLANRNEVFHREIISEMGELGVLGPTIKGYGCAGVSSVAYGLLARELERVDSGYRSAMSVQSSLVMHPIYAYGSEEQRQKYLPQLAKGELLGCFGLTEPNSGSDPSSMETRAHYNSSNKSYTLNGTKTWITNSPMADLFVVWARCEDGCIRGFLLEKGMRGLSAPRIQGKFSLRASATGMIIMDGVEVPEENVLPGASSLGGPFGCLNNARYGIAWGVLGASEFCLHTARQYALDRMQFGVPLARNQLIQKKLADMLTEITLGLHACLQLGRLKDQDKAAPEMVSLLKRNNCGKALDIARQARDMLGGNGISDEYHVIRHAMNLEAVNTYEGTHDIHALILGRAITGIQAFTASK [W50C] | increasing interaction strength
MALRGVSVRLLSRGPGLHVLRTWVSSAAQTEKGGRTQSQLAKSSRPEFDWQDPLVLEEQLTTDEILIRDTFRTYCQERLMPRILLANCNEVFHREIISEMGELGVLGPTIKGYGCAGVSSVAYGLLARELERVDSGYRSAMSVQSSLVMHPIYAYGSEEQRQKYLPQLAKGELLGCFGLTEPNSGSDPSSMETRAHYNSSNKSYTLNGTKTWITNSPMADLFVVWARCEDGCIRGFLLEKGMRGLSAPRIQGKFSLRASATGMIIMDGVEVPEENVLPGASSLGGPFGCLNNARYGIAWGVLGASEFCLHTARQYALDRMQFGVPLARNQLIQKKLADMLTEITLGLHACLQLGRLKDQDKAAPEMVSLLKRNNCGKALDIARQARDMLGGNGISDEYHVIRHAMNLEAVNTYEGTHDIHALILGRAITGIQAFTASK [R88C] | increasing interaction strength
